Experimental data taken from patent US20230096452A1 (SHANGHAI ESCUGEN BIOTECHNOLOGY, published 2023).

T1: mouse claudin 18.2 (mCLDN18.2) (mouse, UniProt P56857 10-264)
T1 construct: the stomach-type (A2) isoform is meant; also called m hCLDN18.2; HEK293-mCLDN18.2
T1 chain: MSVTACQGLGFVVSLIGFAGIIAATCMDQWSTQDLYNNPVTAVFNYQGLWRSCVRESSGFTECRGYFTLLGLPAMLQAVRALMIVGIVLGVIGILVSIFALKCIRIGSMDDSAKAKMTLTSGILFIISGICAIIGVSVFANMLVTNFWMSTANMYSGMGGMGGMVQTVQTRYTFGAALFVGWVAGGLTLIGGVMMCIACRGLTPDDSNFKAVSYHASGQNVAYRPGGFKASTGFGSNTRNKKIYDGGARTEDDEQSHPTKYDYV


Assays:
[1] = target: human claudin 18.2 (hCLDN18.2) (human); test: cell-based or functional assay
[2] = target: T1, mouse claudin 18.2 (mCLDN18.2); test: flow cytometry, HEK293-mCLDN18.2 cells, fixed and non-fixed
[3] = target: T2, mouse claudin 18.1 (mCLDN18.1) (mouse, UniProt P56857 1-264); test: flow cytometry, HEK293-mCLDN18.1 cells, paraformaldehyde-fixed and non-fixed
T2 construct: the lung-type (A1) isoform is meant; also called HEK293-mCLDN18.1

[4] = target: T3, human claudin 18.2 (hCLDN18.2) (human); test: flow cytometry (direct FACS binding, equilibrium at 4 C) on HEK293-hCLDN18.2 cells
T3 construct: also called CLDN18 splice variant 2; HEK293-hCLDN18.2
Method: After resuscitation of HEK293 cells (HEK293-hCLDN18.2) stably expressing CLDN18.2, they were cultured and passaged until a certain number of cells were reached. The cells were distributed to 1 mL centrifuge tubes at a density of 5×10⁴/mL, and centrifuged for use. […] To eliminate ligand depletion effects (Ligand Depletion), antibody concentration series were prepared using PBS binding buffer diluted to the corresponding ligand depletion volume. HEK293-hCLDN18.2 cells were mixed and incubated with serial concentrations of antibodies formulated to the ligand elimination volume, and incubated at 4° C. until equilibrium.

[5] = target: T3, human claudin 18.2 (hCLDN18.2); test: flow cytometry on HEK293-hCLDN18.2 cells; 1 ug/mL; not heat treated
Method: (§1) The well-grown HEK293-hCLDN18.2 stably transfected cell line and the hCLDN18.2 low-expressing KATOIII human gastric cancer cell line sorted and enriched by flow cytometry were digested with trypsin, and resuspended to adjust the cell concentration to 1.5×10⁶˜2×10⁶/mL, added to a 96-well U-plate at 100 μL/well (150,000 to 200,000 cells/well). Washing once with PBS buffer containing 1% fetal bovine serum (FBS). The antibody solution (100 μL/well) with the test concentration prepared in PBS (+1% FBS) was added, mixed with the cells, and incubated at 4° C. for 1 hour. Cells were centrifuged at 200 g and washed once with PBS (+1% FBS). […] Cells were centrifuged at 200 g and washed twice with PBS (+1% FBS), then resuspended in 100 μL of PBS (+1% FBS) for flow cytometric analysis. […] In the study of the effect of heat treatment on the binding properties of antibodies, the antibody to be tested was heat-treated at 70° C. for 5 minutes on a PCR machine, and then incubated with cells for binding.

[6] = target: T3, human claudin 18.2 (hCLDN18.2); test: flow cytometry on HEK293-hCLDN18.2 cells; 5 ug/mL; not heat treated
Method: as §1

[7] = target: T3, human claudin 18.2 (hCLDN18.2); test: flow cytometry on HEK293-hCLDN18.2 cells; 0.2 ug/mL; not heat treated
Method: as §1

[8] = target: T3, human claudin 18.2 (hCLDN18.2); test: flow cytometry on HEK293-hCLDN18.2 cells; 1 ug/mL; antibody heat treated at 70 C for 5 min
Method: as §1

[9] = target: T3, human claudin 18.2 (hCLDN18.2); test: flow cytometry on HEK293-hCLDN18.2 cells; 5 ug/mL; antibody heat treated at 70 C for 5 min
Method: as §1

[10] = target: T3, human claudin 18.2 (hCLDN18.2); test: flow cytometry on HEK293-hCLDN18.2 cells; 0.2 ug/mL; antibody heat treated at 70 C for 5 min
Method: as §1

[11] = target: T3, human claudin 18.2 (hCLDN18.2); test: flow cytometry on hCLDN18.2 low-expressing KATO III cells
Method: as §1

Binder | EC50 [1] | Maximum induction fold [1] | binding result [2] | binding result [3] | Kd [4] | FACS binding signal (read-out unnamed) [5] | FACS binding signal (read-out unnamed) [6] | FACS binding signal (read-out unnamed) [7] | FACS binding signal (read-out unnamed) [8] | FACS binding signal (read-out unnamed) [9] | FACS binding signal (read-out unnamed) [10] | EC50 [11]
163E12 human-mouse chimeric positive control antibody (antibody, V domains shown, Self-made, expressed in CHOS cells, Protein A purified; also called Benchmarker; Benchmark) VH: QIQLVQSGPELKKPGETVKISCKASGYTFTNYGMNWVKQAPGKGLKWMGWINTNTGEPTYAEEFKGRFAFSLETSASTAYLQINNLKNEDTATYFCARLGFGNAMDYWGQGTSVTVSS VL: DIVMTQSPSSLTVTAGEKVTMSCKSSQSLLNSGNQKNYLTWYQQKPGQPPKLLIYWASTRESGVPDRFTGSGSGTDFTLTISSVQAEDLAVYYCQNDYSYPLTFGAGTKLELKR | 0.0195 ng/mL | 36.3 fold | binds | no binding | 0.137 nM |  |  |  |  |  |  | 
5-M9 human-mouse chimeric monoclonal antibody (antibody, human IgG1, V domains shown, Mouse V regions fused to human IgG1 (G1m17) heavy chain constant region and human kappa light chain constant region; also called 5-M9-A; Chi 5-M9) VH: QVQLKESGPVLVAPSQSLSITCTVSGFSLTTYGVQWVRQPPGKGLEWLGAIWAGGNTNYNSALMSRLSISKDNSKSQVFLKMNSLQTDDTAIYYCAKGGYGNAMDYWGQGTSVTVAS VL: DIVMTQSPSSLTVTAGERVTMSCKSSQSLLNSGNQKNYLTWYQQKSGQPPKLLIYWASTRESGVPDRFTGSGSGTDFTLTISSVQAEDLAVYYCQNDYFFPFTFGSGTKLEIK | 0.000287 ng/mL | 40 fold |  |  | 0.048 nM | 341 | 638 | 83 | 289 | 746 | 75.6 | 
9-D1 human-mouse chimeric monoclonal antibody (antibody, human IgG1, V domains shown, Mouse V regions fused to human IgG1 (G1m17) heavy chain constant region and human kappa light chain constant region; also called 9-D1-A) VH: EIQLQQSGAELVKPGASVKISCKASGYSFTDYHMNWVRQSHGKSLEWIGNIDPYYGSPTYNHKFKGKATLTVDKSSSTAYMQLISLTSEDSAVYYCANYGRGNSFPYWGQGTLVTVSA VL: DIVMTQSPSSLTVTAGEKVTMSCKSSQSLLNSGNQRNYLTWYQQKPGQPPKLLLYWASTRESGVPDRFTGSGSGTDFTLTISSVQAEDLAVYYCQNDYSFPFTFGSGTKLEIK | 0.0074 ng/mL | 35 fold |  |  | 0.049 nM |  |  |  |  |  |  | 
h5M9V10 humanized antibody (h5M9 VHv4 / h5M9 VLv1) (antibody, human IgG1, kappa, V domains shown, Human IgG1 (G1m17) / kappa) VH: QVQLKESGPGLVAPSETLSITCTVSGFSLTTYGVQWVRQPPGKGLEWLGAIWAGGNTNYNSALMSRLTISKDNSKSQVSLKMSSLTAADTAIYYCAKGGYGNAMDYWGQGTLVTVSS VL: DIVMTQSPSSLAVSLGERATMNCKSSQSLLNSGNQKNYLTWYQQKPGQPPKLLIYWASTRESGVPDRFSGSGSGTDFTLTISSVQAEDLAVYYCQNDYFFPFTFGQGTKLEIKR |  |  |  |  |  | 316 | 599 | 73.7 | 292 | 607 | 70.8 | 
h5M9V7 humanized antibody (h5M9 VHv3 / h5M9 VLv1) (antibody, human IgG1, kappa, V domains shown, Human IgG1 (G1m17) / kappa) VH: QVQLKESGPGLVAPSETLSITCTVSGFSLTTYGVQWVRQPPGKGLEWLGAIWAGGNTNYNSALMSRLTISKDNSKSQVSLKMSSVTAADTAIYYCAKGGYGNAMDYWGQGTLVTVSS VL: DIVMTQSPSSLAVSLGERATMNCKSSQSLLNSGNQKNYLTWYQQKPGQPPKLLIYWASTRESGVPDRFSGSGSGTDFTLTISSVQAEDLAVYYCQNDYFFPFTFGQGTKLEIKR |  |  |  |  |  | 296 | 631 | 84.3 | 294 | 732 | 73.3 | 
h5M9V12 humanized antibody (h5M9 VHv4 / h5M9 VLv3) (antibody, human IgG1, kappa, V domains shown, Human IgG1 (G1m17) / kappa) VH: QVQLKESGPGLVAPSETLSITCTVSGFSLTTYGVQWVRQPPGKGLEWLGAIWAGGNTNYNSALMSRLTISKDNSKSQVSLKMSSLTAADTAIYYCAKGGYGNAMDYWGQGTLVTVSS VL: DIVMTQSPSSLAVSLGERVTMNCKSSQSLLNSGNQKNYLTWYQQKPGQPPKLLIYWASTRESGVPDRFTGSGSGTDFTLTISSVQAEDLAVYYCQNDYFFPFTFGSGTKLEIKR |  |  |  |  |  | 419 | 589 | 103 | 411 | 673 | 90 | 
h5M9v9 humanized antibody (h5M9 VHv3 / h5M9 VLv3) (antibody, V domains shown, Human IgG1 (G1m17) heavy and human kappa light constant regions) VH: QVQLKESGPGLVAPSETLSITCTVSGFSLTTYGVQWVRQPPGKGLEWLGAIWAGGNTNYNSALMSRLTISKDNSKSQVSLKMSSVTAADTAIYYCAKGGYGNAMDYWGQGTLVTVSS VL: DIVMTQSPSSLAVSLGERVTMNCKSSQSLLNSGNQKNYLTWYQQKPGQPPKLLIYWASTRESGVPDRFTGSGSGTDFTLTISSVQAEDLAVYYCQNDYFFPFTFGSGTKLEIK |  |  |  |  |  | 291 | 589 | 66.8 | 242 | 636 | 59.2 | 
175D10 human-mouse chimeric positive control antibody (antibody, V domains shown, Self-made, expressed in CHOS cells, Protein A purified; also called Benchmark) VH: QVQLQQPGAELVRPGASVKLSCKASGYTFTSYWINWVKQRPGQGLEWIGNIYPSDSYTNYNQKFKDKATLTVDKSSSTAYMQLSSPTSEDSAVYYCTRSWRGNSFDYWGQGTTLTVSS VL: DIVMTQSPSSLTVTAGEKVTMSCKSSQSLLNSGNQKNYLTWYQQKPGQPPKLLIYWASTRESGVPDRFTGSGSGTDFTLTISSVQAEDLAVYYCQNDYSYPFTFGSGTKLEIKR |  |  |  |  | 0.189 nM | 318 | 567 | 81.3 | 296 | 600 |  | 800 ng/mL
